Assay results taken from patent US20220411504A1 (Janssen / Centocor, published 2022).

B1: HC3B235 (bispecific antibody, human IgG1, kappa, L234A L235A)
scFv: QTVVTQEPSLTVSPGGTVTLTCRSSTGAVTTSNYANWVQQKPGQAPRGLIGGTNKRAPGTPARFSGSLLGGKAALTLSGVQPEDEAEYYCALWYSNLWVFGGGTKLTVLGGSEGKSSGSGSESKSTGGSEVQLVESGGGLVQPGGSLRLSCAASGFTFNTYAMNWVRQAPGKGLEWVARIRSKYNNYATYYAASVKGRFTISRDDSKNSLYLQMNSLKTEDTAVYYCVRHGNFGNSYVSWFAYWGQGTLVTVSSEPKSSDKTHTCPPCPAPEAAGGPSVFLFPPKPKDTLMISRTPEVTCVVVSVSHEDPEVKFNWYVDGVEVHNAKTKPREEQYNSTYRVVSVLTVLHQDWLNGKEYKCKVSNKALPAPIEKTISKAKGQPREPQVYVYPPSREEMTKNQVSLTCLVKGFYPSDIAVEWESNGQPENNYKTTPPVLDSDGSFALVSKLTVDKSRWQQGNVFSCSVMHEALHNHYTQKSLSLSPG
heavy: QVQLQQSGPGLVKPSQTLSLTCAISGDSVSSNRAAWNWIRQSPSRGLEWLGRTYYRSKWYNDYAVSVKSRITINPDTSKNQISLQLNSVTPEDTAVYYCARVRPGIPFDYWGQGTPVTVSSASTKGPSVFPLAPSSKSTSGGTAALGCLVKDYFPEPVTVSWNSGALTSGVHTFPAVLQSSGLYSLSSVVTVPSSSLGTQTYICNVNHKPSNTKVDKKVEPKSCDKTHTCPPCPAPEAAGGPSVFLFPPKPKDTLMISRTPEVTCVVVSVSHEDPEVKFNWYVDGVEVHNAKTKPREEQYNSTYRVVSVLTVLHQDWLNGKEYKCKVSNKALPAPIEKTISKAKGQPREPQVYVLPPSREEMTKNQVSLLCLVKGFYPSDIAVEWESNGQPENNYLTWPPVLDSDGSFFLYSKLTVDKSRWQQGNVFSCSVMHEALHNHYTQKSLSLSPG
light: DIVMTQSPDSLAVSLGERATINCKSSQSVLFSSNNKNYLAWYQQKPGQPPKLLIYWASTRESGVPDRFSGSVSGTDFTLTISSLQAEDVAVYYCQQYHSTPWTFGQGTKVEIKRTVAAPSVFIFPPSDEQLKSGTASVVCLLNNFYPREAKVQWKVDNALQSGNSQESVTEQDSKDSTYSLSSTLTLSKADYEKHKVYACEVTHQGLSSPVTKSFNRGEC
B2: HC3B230 (bispecific antibody, human IgG1, kappa, L234A L235A)
scFv: B1 scFv
heavy: QVQLQQSGPGLVKPSQTLSLTCAISGDSVSSNSAAWNWIRQSPSRGLEWLGRTYYRSKWYNDYAVSVKSRITINPDTSKNQISLQLNSVTPEDTAVYYCAGDRRYGIVGLPFAYWGQGTLVTVSSASTKGPSVFPLAPSSKSTSGGTAALGCLVKDYFPEPVTVSWNSGALTSGVHTFPAVLQSSGLYSLSSVVTVPSSSLGTQTYICNVNHKPSNTKVDKKVEPKSCDKTHTCPPCPAPEAAGGPSVFLFPPKPKDTLMISRTPEVTCVVVSVSHEDPEVKFNWYVDGVEVHNAKTKPREEQYNSTYRVVSVLTVLHQDWLNGKEYKCKVSNKALPAPIEKTISKAKGQPREPQVYVLPPSREEMTKNQVSLLCLVKGFYPSDIAVEWESNGQPENNYLTWPPVLDSDGSFFLYSKLTVDKSRWQQGNVFSCSVMHEALHNHYTQKSLSLSPG
light: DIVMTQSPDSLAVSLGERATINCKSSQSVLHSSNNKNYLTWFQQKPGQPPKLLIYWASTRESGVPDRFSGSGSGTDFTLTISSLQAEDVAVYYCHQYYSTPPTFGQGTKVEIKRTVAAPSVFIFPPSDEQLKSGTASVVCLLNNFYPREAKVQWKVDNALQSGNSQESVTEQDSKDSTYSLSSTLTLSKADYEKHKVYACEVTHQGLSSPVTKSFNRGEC
B3: MHGB737 (antibody, human IgG1, kappa, V domains shown)
VH: EVQLLESGGGLVQPGGSLRLSCAASGFTFSSYAMHWVRQAPGKGLEWVSGISGSGFSTYYVDSVKGRFTISRDNSKNTLYLQMNSLRAEDTAVYYCAKDNLVAGTVFDYWGQGTLVTVSS
VL: not shown
notes: IgG1; also called GL-optimized B694
B4: HC3B232 (bispecific antibody, human IgG1, kappa, L234A L235A)
scFv: DIQMTQSPSSLSASVGDRVTITCRARQSIGTAIHWYQQKPGKAPKLLIKYASESISGVPSRFSGSGSGTDFTLTISSVQPEDFATYYCQQSGSWPYTFGQGTKLEIKGGSEGKSSGSGSESKSTGGSEVQLVESGGGLVKPGGSLRLSCAASGFTFSRYNMNWVRQAPGKGLEWVSSISTSSNYIYYADSVKGRFTFSRDNAKNSLDLQMSGLRAEDTAIYYCTRGWGPFDYWGQGTLVTVSSEPKSSDKTHTCPPCPAPEAAGGPSVFLFPPKPKDTLMISRTPEVTCVVVSVSHEDPEVKFNWYVDGVEVHNAKTKPREEQYNSTYRVVSVLTVLHQDWLNGKEYKCKVSNKALPAPIEKTISKAKGQPREPQVYVYPPSREEMTKNQVSLTCLVKGFYPSDIAVEWESNGQPENNYKTTPPVLDSDGSFALVSKLTVDKSRWQQGNVFSCSVMHEALHNHYTQKSLSLSPGK
heavy: B2 heavy
light: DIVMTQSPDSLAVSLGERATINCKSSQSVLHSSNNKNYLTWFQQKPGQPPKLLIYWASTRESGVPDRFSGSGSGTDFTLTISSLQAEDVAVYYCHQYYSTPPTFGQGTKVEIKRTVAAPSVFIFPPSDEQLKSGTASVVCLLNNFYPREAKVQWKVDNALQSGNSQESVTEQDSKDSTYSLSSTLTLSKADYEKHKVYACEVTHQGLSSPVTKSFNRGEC
B5: HC3B231 (bispecific antibody, human IgG1, kappa, L234A L235A)
scFv: QSALTQPASVSGSPGQSITISCTGTSSNIGTYKFVSWYQQHPGKAPKVMIYEVSKRPSGVSNRFSGSKSGNTASLTISGLQAEDEADYYCVSYAGSGTLLFGGGTKLTVLGGSEGKSSGSGSESKSTGGSQVQLQQSGPGLVKPSQTLSLTCAISGDSVFNNNAAWSWIRQSPSRGLEWLGRTYYRSKWLYDYAVSVKSRITINPDTSKNQFSLQLNSVTPEDTAVYYCARGYSSSFDYWGQGTLVTVSSEPKSSDKTHTCPPCPAPEAAGGPSVFLFPPKPKDTLMISRTPEVTCVVVSVSHEDPEVKFNWYVDGVEVHNAKTKPREEQYNSTYRVVSVLTVLHQDWLNGKEYKCKVSNKALPAPIEKTISKAKGQPREPQVYVYPPSREEMTKNQVSLTCLVKGFYPSDIAVEWESNGQPENNYKTTPPVLDSDGSFALVSKLTVDKSRWQQGNVFSCSVMHEALHNHYTQKSLSLSPG
heavy: B2 heavy
light: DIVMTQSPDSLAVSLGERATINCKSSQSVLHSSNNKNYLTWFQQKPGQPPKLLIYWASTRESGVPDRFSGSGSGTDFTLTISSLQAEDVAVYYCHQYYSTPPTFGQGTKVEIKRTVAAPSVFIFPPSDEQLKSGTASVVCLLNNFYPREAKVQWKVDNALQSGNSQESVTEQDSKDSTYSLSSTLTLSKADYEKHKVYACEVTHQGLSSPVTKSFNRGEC
B6: HC3B216 (bispecific antibody, human IgG1, lambda, L234A L235A)
heavy: QVQLQQSGPRLVRPSQTLSLTCAISGDSVFNNNAAWSWIRQSPSRGLEWLGRTYYRSKWLYDYAVSVKSRITVNPDTSRNQFTLQLNSVTPEDTALYYCARGYSSSFDYWGQGTLVTVSSASTKGPSVFPLAPSSKSTSGGTAALGCLVKDYFPEPVTVSWNSGALTSGVHTFPAVLQSSGLYSLSSVVTVPSSSLGTQTYICNVNHKPSNTKVDKKVEPKSCDKTHTCPPCPAPEAAGGPSVFLFPPKPKDTLMISRTPEVTCVVVSVSHEDPEVKFNWYVDGVEVHNAKTKPREEQYNSTYRVVSVLTVLHQDWLNGKEYKCKVSNKALPAPIEKTISKAKGQPREPQVYVYPPSREEMTKNQVSLTCLVKGFYPSDIAVEWESNGQPENNYKTTPPVLDSDGSFALVSKLTVDKSRWQQGNVFSCSVMHEALHNHYTQKSLSLSPG
light: QSALTQPASVSGSPGQSITISCTGTSSNIGTYKFVSWYQQHPDKAPKVLLYEVSKRPSGVSSRFSGSKSGNTASLTISGLQAEDQADYHCVSYAGSGTLLFGGGTKLTVLGQPKAAPSVTLFPPSSEELQANKATLVCLISDFYPGAVTVAWKADSSPVKAGVETTTPSKQSNNKYAASSYLSLTPEQWKSHRSYSCQVTHEGSTVEKTVAPTECS
scFv: not shown
B7: HC3B124 (bispecific antibody, human IgG1, lambda, L234A L235A)
heavy: EVQLVESGGGLVQPGGSLRLSCAASGFTFNTYAMNWVRQAPGKGLEWVARIRSKYNNYATYYAASVKGRFTISRDDSKNSLYLQMNSLKTEDTAVYYCVRHGNFGNSYVSWFAYWGQGTLVTVSSASTKGPSVFPLAPSSKSTSGGTAALGCLVKDYFPEPVTVSWNSGALTSGVHTFPAVLQSSGLYSLSSVVTVPSSSLGTQTYICNVNHKPSNTKVDKKVEPKSCDKTHTCPPCPAPEAAGGPSVFLFPPKPKDTLMISRTPEVTCVVVSVSHEDPEVKFNWYVDGVEVHNAKTKPREEQYNSTYRVVSVLTVLHQDWLNGKEYKCKVSNKALPAPIEKTISKAKGQPREPQVYVYPPSREEMTKNQVSLTCLVKGFYPSDIAVEWESNGQPENNYKTTPPVLDSDGSFALVSKLTVDKSRWQQGNVFSCSVMHEALHNHYTQKSLSLSPG
light: QTVVTQEPSLTVSPGGTVTLTCRSSTGAVTTSNYANWVQQKPGQAPRGLIGGTNKRAPGTPARFSGSLLGGKAALTLSGVQPEDEAEYYCALWYSNLWVFGGGTKLTVLGQPKAAPSVTLFPPSSEELQANKATLVCLISDFYPGAVTVAWKADSSPVKAGVETTTPSKQSNNKYAASSYLSLTPEQWKSHRSYSCQVTHEGSTVEKTVAPTECS
scFv: DIVMTQSPDSLAVSLGERATINCKSSQSVLHSSNNKNYLTWFQQKPGQPPKLLIYWASTRESGVPDRFSGSGSGTDFTLTISSLQAEDVAVYYCHQYYSTPPTFGQGTKVEIKGGSEGKSSGSGSESKSTGGSQVQLQQSGPGLVKPSQTLSLTCAISGDSVSSNSAAWNWIRQSPSRGLEWLGRTYYRSKWYNDYAVSVKSRITINPDTSKNQISLQLNSVTPEDTAVYYCAGDRRYGIVGLPFAYWGQGTLVTVSSEPKSSDKTHTCPPCPAPEAAGGPSVFLFPPKPKDTLMISRTPEVTCVVVSVSHEDPEVKFNWYVDGVEVHNAKTKPREEQYNSTYRVVSVLTVLHQDWLNGKEYKCKVSNKALPAPIEKTISKAKGQPREPQVYVLPPSREEMTKNQVSLLCLVKGFYPSDIAVEWESNGQPENNYLTWPPVLDSDGSFFLYSKLTVDKSRWQQGNVFSCSVMHEALHNHYTQKSLSLSPG
B8: HC3B123 (bispecific antibody, human IgG1, kappa, L234A L235A)
heavy: EVQLVESGGGLVKPGGSLRLSCAASGFTFSRYNMNWVRQAPGKGLEWVSSISTSSNYIYYADSVKGRFTFSRDNAKNSLDLQMSGLRAEDTAIYYCTRGWGPFDYWGQGTLVTVSSASTKGPSVFPLAPSSKSTSGGTAALGCLVKDYFPEPVTVSWNSGALTSGVHTFPAVLQSSGLYSLSSVVTVPSSSLGTQTYICNVNHKPSNTKVDKKVEPKSCDKTHTCPPCPAPEAAGGPSVFLFPPKPKDTLMISRTPEVTCVVVSVSHEDPEVKFNWYVDGVEVHNAKTKPREEQYNSTYRVVSVLTVLHQDWLNGKEYKCKVSNKALPAPIEKTISKAKGQPREPQVYVYPPSREEMTKNQVSLTCLVKGFYPSDIAVEWESNGQPENNYKTTPPVLDSDGSFALVSKLTVDKSRWQQGNVFSCSVMHEALHNHYTQKSLSLSPG
light: DIQMTQSPSSLSASVGDRVTITCRARQSIGTAIHWYQQKPGKAPKLLIKYASESISGVPSRFSGSGSGTDFTLTISSVQPEDFATYYCQQSGSWPYTFGQGTKLEIKRTVAAPSVFIFPPSDEQLKSGTASVVCLLNNFYPREAKVQWKVDNALQSGNSQESVTEQDSKDSTYSLSSTLTLSKADYEKHKVYACEVTHQGLSSPVTKSFNRGEC
scFv: B7 scFv

Assays:
[1] = target: HLA-G on cells (K562-HLA-G and HLA-G expressing tumor cells) (human); assay: cell-based or functional assay
[2] = target: T1, MHGW8 (B2m-3(G4S)-HLA-G1-G4S-Avi) (human, biotinylated (Avi tag) in the blocking assay); assay: SPR, mAb captured by goat anti-human Fc, MHGW8 flowed
T1 construct: Single chain β2m-HLA-G1; also called soluble HLA-G1 extracellular domain; recombinant biotinylated HLA-G1

Row | Binder | Cytotoxicity, EC50 (T cell-mediated, NCI-H2009-b2m target cells, 72 hr) [1] [nM] | further results
1 | B1 | 0.0837 | 
2 | B2 | 0.00992 | 
3 | B3 |  | Kd [2]: 2.56 nM; koff [2]: 0.00031 s⁻¹; kon [2]: 200000 M⁻¹ s⁻¹
4 | B4 | 0.00677 | 
5 | B5 | 0.126 | 
6 | B6 | 1.9 | 
7 | B7 | 0.00385 | 
8 | B8 | 0.00324 | 
